From patent US20100227772
Where two headings read alike, the source gives them in different places.

System: Antennapedia homeodomain (YPWM motif + homeodomain, Antp residues 297-364 in plasmid pAop3)
Conditions: FCCS

Row | Substance | Kd (average of 3 saturation curves, single curve of FIG. 3 gives 8.6 nM) | Kd (average of 10 saturation curves, single curve of FIG. 2 gives 6.3 nM)
1 | BS2 (16 bp) | 5.1 nM | 
2 | HB1 (36 bp) |  | 3.6 nM
